Source: ChEMBL document CHEMBL1157618, “Noncovalent tripeptidyl benzyl- and cyclohexyl-amine inhibitors of the cysteine protease caspase-1” (J Med Chem, 2010)

Substrate: CC(C)[C@H](NC(=O)c1ccc2ccccc2c1)C(=O)N[C@@H](C)C(=O)N[C@H](CNCc1ccccc1O)CC(=O)O
Settings: Homo sapiens
Description: Activity of human recombinant caspase 1

B1: Caspase-1 (Homo sapiens), P29466 (protein)
chain: MADKVLKEKRKLFIRSMGEGTINGLLDELLQTRVLNKEEMEKVKRENATVMDKTRALIDSVIPKGAQACQICITYICEEDSYLAGTLGLSADQTSGNYLNMQDSQGVLSSFPAPQAVQDNPAMPTSSGSEGNVKLCSLEEAQRIWKQKSAEIYPIMDKSSRTRLALIICNEEFDSIPRRTGAEVDITGMTMLLQNLGYSVDVKKNLTASDMTTELEAFAHRPEHKTSDSTFLVFMSHGIREGICGKKHSEQVPDILQLNAIFNMLNTKNCPSLKDKPKVIIIQACRGDSPGVVWFKDSVGVSGNLSLPTTEEFEDDAIKKAHIEKDFIAFCSSTPDNVSWRHPTMGSVFIGRLIEHMQEYACSCDVEEIFRKVRFSFEQPDGRAQMPTTERVTLTRCFYLFPGH
Km: 5.8 µM
